The values that follow come from patent publication US20170051047A1.

Test [1] deals with Clostridium difficile toxin A (whole toxin A) (Clostridium difficile) (UniProt P16154).
The target is the same in test [2]. Put plainly: cell-based or functional assay.

On to “CDA1 (Merck anti-toxin A mAb used as a control) (antibody)”, for which, in test [1], the Kd (as a rule, the constant that tells how readily two partners part at equilibrium) is 624 pM; the koff (usually the rate constant with which the complex falls apart) is 0.000291 s⁻¹; the kon (as a rule, the second-order rate constant of association) was 480000 M⁻¹ s⁻¹. Also, in test [2], the IC50, in vitro toxin A neutralization on Vero cells amounted to 0.347 µg/mL.
